# No end group written: not given here.
# B1: u7-peptide coupled through PEG to the capsid of adenovirus Ad2/βgal-4 (other)
# peptide: CLNGGTC
# modifications: not fully specified; also: coupled through bifunctional PEG to adenovirus capsid, terminal Cys with free sulfhydryl used for coupling
# Target: urokinase plasminogen activator receptor (uPAR) on differentiated human airway epithelia (human, UniProt Q03405 23-305, GPI-linked)
# Experiment: cell-based or functional assay
# Chain of urokinase plasminogen activator receptor (uPAR) on differentiated human airway epithelia (Q03405 23-305): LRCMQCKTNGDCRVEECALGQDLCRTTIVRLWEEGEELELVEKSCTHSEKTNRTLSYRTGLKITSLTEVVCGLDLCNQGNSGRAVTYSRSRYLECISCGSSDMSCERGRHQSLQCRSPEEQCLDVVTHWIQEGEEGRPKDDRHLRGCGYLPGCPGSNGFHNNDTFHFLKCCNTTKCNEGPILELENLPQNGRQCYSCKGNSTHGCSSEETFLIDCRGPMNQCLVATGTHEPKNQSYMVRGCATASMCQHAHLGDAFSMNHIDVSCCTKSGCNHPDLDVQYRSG
binder,measurement,value
B1,gene transfer (β-galactosidase) to human airway epithelia,10 fold
